The text below walks through data of patent US20100305307A1 (published 2010).

In assay [1] the target is human EGF-r expressed on the surface of human carcinoma cells (A431, SW948) (human) (UniProt P00533). Briefly: cell-based or functional assay.
Assay [2] has as its target soluble EGF-r purified from A431 cell membranes (Sigma, E-3641) (human, UniProt P00533 25-1210, limits assumed). Briefly: BIAcore, solid phase, antigen immobilized on the sensor surface.
Method: Determination of affinity constants of fully human Mabs by BIAcore: Affinity measurement of purified human monoclonal antibodies, Fab fragments, or hybridoma supernatants by plasmon resonance was carried out using the BIAcore 2000 instrument, using general procedures outlined by the manufacturers.
Based upon the general procedures outlined by the manufacture, kinetic analyses of the antibodies were performed using antigens immobilized onto the sensor surface at a low density. […] The dissociation (kd or koff) and association (ka or kₒₙ) rates were determined using the software provided by the manufacturer (BIA evaluation 2.1).

With murine monoclonal antibody 528, the IC50, inhibition of A431 cell proliferation in vitro in assay [1] came to 0.66 nM.

B1: antibody secreted by the hybridoma E1.1 (antibody, V domains shown)
VH: VSGGSINSGDYYWSWIRQHPGKGLDCIGYIYYSGSTYYNPSLKSRVTISVDTSKNQFFLKLTSVTAADTAVYYCARSTVVNPGWFDPWGQGTLVTVSS
VL: TITCQASQDINNYLNWFQQKPGKAPKVLIHDASNLETGGPSRFSGSGSGTDFTFTISGLQPEDIATYYCQQYESLPLTFGGGTKVEIKR
notes: Fully human IgG2 heavy chain with human kappa light chain; they were cloned by PCR between V-region and constant-region primers, so they are probably not full chains
In turn, B1 displayed a dissociation constant (Kd) in assay [2] of 0.076 nM.
